One block for each substance: values may come before it.
Experiments:
[1] = target: CBKP2, PaKEOPS complex with PaPcc2 in place of PaPcc1 (PaCgi121/PaBud32/PaKae1/PaPcc2) (Pyrococcus abyssi) (UniProt Q9UXT7); assay: SEC-SAXS; purified complexes loaded at 2.55 (CBKP1P2), 0.72 (CBKP1) and 3 mg/ml (CBKP2) on a Bio-SEC3 column; 20 mM Tris pH 8.5, 300 mM NaCl, 5 mM 2-mercaptoethanol, 5% glycerol
[2] = target: PaCgi121;PaBud32;PaKae1;PaPcc1-His6;PaPcc2-Strep (Pyrococcus abyssi;Pyrococcus abyssi;Pyrococcus abyssi;Pyrococcus abyssi;Pyrococcus abyssi) (UniProt Q9UZ62+Q9UYB9+Q9UXT7+Q9V1Z9+A0A915Q984); assay: fluorescence anisotropy; conditions: CBKP1P2 complex; 3 mM Mg2+; n=3; 20 mM Tris-HCl pH 8, 150 mM KCl, 3 mM MgCl2, 1% glycerol, 1 nM labelled tRNA (10 nM in Suppl. Fig. 7C), 20 °C, 15 min
[3] = target: PaCgi121;PaBud32;PaKae1;PaPcc2-His6 (Pyrococcus abyssi;Pyrococcus abyssi;Pyrococcus abyssi;Pyrococcus abyssi) (UniProt Q9UZ62+Q9UYB9+Q9UXT7+A0A915Q983); assay: fluorescence anisotropy; conditions: CBKP2 complex; 3 mM Mg2+; 10 nM tRNA (Suppl. Fig. 7C); 20 mM Tris-HCl pH 8, 150 mM KCl, 3 mM MgCl2, 1% glycerol, 1 nM labelled tRNA (10 nM in Suppl. Fig. 7C), 20 °C, 15 min
[4] = target: PaPcc2 with C-terminal hexa-histidine tag (Pyrococcus abyssi Pcc2) (Pyrococcus abyssi); assay: SEC; Ni-NTA eluate on HiLoad 16/600 Superdex 200 pg or Superdex 75 pg; 20 mM Tris-HCl pH 8, 500 mM KCl, 10% glycerol, 5 mM ß-mercaptoethanol

Sequence of PaCgi121;PaBud32;PaKae1;PaPcc2-His6 (Pyrococcus abyssi;Pyrococcus abyssi;Pyrococcus abyssi;Pyrococcus abyssi) (Q9UZ62 whole entry, chain 1 of 4): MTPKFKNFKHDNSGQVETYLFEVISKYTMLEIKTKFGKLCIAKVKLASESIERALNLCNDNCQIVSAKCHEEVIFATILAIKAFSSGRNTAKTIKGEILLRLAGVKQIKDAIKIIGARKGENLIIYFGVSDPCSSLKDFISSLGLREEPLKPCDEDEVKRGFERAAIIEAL
Sequence of PaCgi121;PaBud32;PaKae1;PaPcc2-His6 (Pyrococcus abyssi;Pyrococcus abyssi;Pyrococcus abyssi;Pyrococcus abyssi) (Q9UYB9 whole entry, chain 2 of 4): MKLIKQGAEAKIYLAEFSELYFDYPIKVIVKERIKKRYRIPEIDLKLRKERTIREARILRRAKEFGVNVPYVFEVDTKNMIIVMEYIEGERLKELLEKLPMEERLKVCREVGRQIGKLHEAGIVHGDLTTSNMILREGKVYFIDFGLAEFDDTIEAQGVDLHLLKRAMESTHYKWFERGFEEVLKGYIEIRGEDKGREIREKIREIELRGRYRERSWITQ
Sequence of PaCgi121;PaBud32;PaKae1;PaPcc2-His6 (Pyrococcus abyssi;Pyrococcus abyssi;Pyrococcus abyssi;Pyrococcus abyssi) (Q9UXT7 whole entry, chain 3 of 4): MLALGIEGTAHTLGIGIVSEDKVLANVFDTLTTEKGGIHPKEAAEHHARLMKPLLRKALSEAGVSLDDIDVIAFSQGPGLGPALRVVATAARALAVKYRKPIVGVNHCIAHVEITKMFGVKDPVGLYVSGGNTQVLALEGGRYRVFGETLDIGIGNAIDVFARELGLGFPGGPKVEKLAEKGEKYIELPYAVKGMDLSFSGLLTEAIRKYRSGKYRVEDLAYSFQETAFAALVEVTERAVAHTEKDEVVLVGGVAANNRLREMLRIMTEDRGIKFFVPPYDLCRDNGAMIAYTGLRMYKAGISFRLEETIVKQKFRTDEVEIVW
Sequence of PaCgi121;PaBud32;PaKae1;PaPcc2-His6 (Pyrococcus abyssi;Pyrococcus abyssi;Pyrococcus abyssi;Pyrococcus abyssi) (chain, as listed by the source, chain 4 of 4): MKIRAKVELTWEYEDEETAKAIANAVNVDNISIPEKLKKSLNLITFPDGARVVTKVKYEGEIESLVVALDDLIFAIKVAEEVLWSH

Substance: CBKP2, PaKEOPS complex with PaPcc2 in place of PaPcc1 (PaCgi121/PaBud32/PaKae1/PaPcc2) (from UniProt Q9UXT7 1-324)
- stoichiometry N [1]: 2

Substance: GGGCCGGUAGCUCAGCCUGGUCAGAGCACCGGGCUUUUAACCCGGUGGUCGCGGGUUCAAAUCCCGCCCGGCCCGCCA [Pa_tRNALys (UUU)]
- Kd [2]: 100 nM
- Kd [3]: 1800 nM

- stoichiometry N [4]: 2
Substance: PaPcc2 with C-terminal hexa-histidine tag (Pyrococcus abyssi Pcc2) (natural protein)

Source: PMC9889334
